Data reported in publication PMC3623958, “Structural and Functional Role of INI1 and LEDGF in the HIV-1 Preintegration Complex”.

Key:
[1] = target: HIV-1 integrase (full length wild type) (HIV-1); experiment: cross-linking + other: High-Mass MALDI ToF mass spectrometry; purified IN/LEDGF/INI1-IBD complex (formed by dialysis, affinity chromatography and gel filtration) chemically cross-linked before mass spectrometry; linear mode
[2] = target: HIV-1 integrase (full length wild type) (HIV-1)
[3] = target: T1, HIV-1 integrase (IN);LEDGF/p75 (HIV-1;human?, UniProt P04585;O75475 1148-1435;1-530, |); experiment: competition (fluorescence anisotropy); excess over N1; 5 mM Mg2+; settings: protein: recombinant;recombinant; tags: GST tag on the IN/LEDGF complex cleaved by P3C protease; chain copies: 4;2; blunt
[4] = target: T2, HIV-1 integrase (IN);LEDGF/p75;INI1-IBD (HIV-1;human?;human?, UniProt P04585;O75475;Q12824 1148-1435;1-530;174-289, ||); experiment: as above; settings: protein: recombinant;recombinant;recombinant; tags: GST tag on the IN/LEDGF complex cleaved by P3C protease; chain copies: 4;2;2; blunt
[5] = target: T1, HIV-1 integrase (IN);LEDGF/p75; experiment: fluorescence anisotropy; 5 mM Mg2+; 2 DNA duplexes per complex assumed; settings: protein: recombinant;recombinant; tags: GST tag on the IN/LEDGF complex cleaved by P3C protease; chain copies: 4;2; label: 5'-6FAM on strand 1; blunt
[6] = target: T2, HIV-1 integrase (IN);LEDGF/p75;INI1-IBD; experiment: as above; settings: protein: recombinant;recombinant;recombinant; tags: GST tag on the IN/LEDGF complex cleaved by P3C protease; chain copies: 4;2;2; label: 5'-6FAM on strand 1; blunt

HIV-1 integrase (full length wild type) (enzyme)
stoichiometry N [1]: 2

Lens Epithelium-Derived Growth Factor LEDGF/p75 (full length wild type) (from UniProt O75475 1-530) (natural protein)
circular full site integration products counted by cloning in bacteria, IN/LEDGF complex against isolated IN, 0.1 to 12.5 µM in IN monomers [2]: 2 to 10 times

B1: non-specific DNA 49 bp, unlabeled competitor (dsDNA)
DNA 1: AGTTAAGTGCTGAATTATGATAGTAATCAATATCTACTCCTAACCTCTT
DNA 2: AAGAGGTTAGGAGTAGATATTGATTACTATCATAATTCAGCACTTAACT
binding result [3]: no binding
binding result [4]: no binding

B2: U5 vDNA 40 bp, 6FAM (dsDNA)
DNA 1: GACTACGGTTCAAGTCAGCGTGTGGAAAATCTCTAGCAGT
DNA 2: ACTGCTAGAGATTTTCCACACGCTGACTTGAACCGTAGTC
Kd [5]: 10.6 ± 0.5 nM
Kd [6]: 35 ± 4 nM
